A short description of one series: in vitro. Particulars: mouse, plasma. An excerpt:
(§1) The change of the polarization value was used to assess the binding of the Compound to human serum albumin as a low change of polarisation value is associated to low binding being appropriate for in-vivo use.

Another series has as its target T1, human c-Met/Fc chimera (Homo sapiens, UniProt P08581).
T1 construct: Fc (immunoglobulin Fc fusion partner); purchased R&D Systems
In words: Fluorescence polarisation assay, affinity binding to cMet. Particulars: 5 nM dye-labelled peptide, c-Met/Fc 0-250 nM, 10 min at 30° C., one-site binding. The method, then: Monochromatic light passes through a […] polarizing filter and excites fluorescent molecules in the sample. Only those molecules that oriented properly in the vertically polarized plane adsorb light, become excited, and subsequently emit light. The emitted light is measured in both horizontal and vertical planes. The anisotropy value (A), is the ratio between the light intensities following the equation
The fluorescence anisotropy measurements were performed in 384-well microplates in a volume of 10 μL in binding buffer (PBS, 0.01% Tween-20, pH 7.5) using a Tecan Safire fluorescence polarisation plate reader (Tecan, US) at Ex 635/Em 678 nm. The concentration of dye-labelled peptide was held constant (5 nM) and the concentration of the human c-Met/Fc chimera (R&D Systems) was varied from 0-250 nM. Binding mixtures were equilibrated in the microplate for 10 min at 30° C. The observed change in anisotropy was fitted to the equation: […]
where robs is the observed anisotropy, rfree is the anisotropy of the free peptide, rbound is the anisotropy of the bound peptide, Kd is the dissociation constant, cMet is the total c-Met concentration, and P is the total dye-labelled peptide concentration. The equation assumes that the synthetic peptide and the receptor form a reversible complex in solution with 1:1 stoichiometry. Data fitting was done via nonlinear regression using SigmaPlot software to obtain the Kd value (one-site binding).
Compounds 1 to 6 were tested for binding towards human c-Met (Fc chimera).
(In general: Fluorescence polarisation rises when a labelled molecule tumbles more slowly, as on binding a larger partner.)

Series [1] deals with T2, human serum albumin (Homo sapiens, UniProt P02768). In words: in vitro.
T2 sequence (P02768 25-609): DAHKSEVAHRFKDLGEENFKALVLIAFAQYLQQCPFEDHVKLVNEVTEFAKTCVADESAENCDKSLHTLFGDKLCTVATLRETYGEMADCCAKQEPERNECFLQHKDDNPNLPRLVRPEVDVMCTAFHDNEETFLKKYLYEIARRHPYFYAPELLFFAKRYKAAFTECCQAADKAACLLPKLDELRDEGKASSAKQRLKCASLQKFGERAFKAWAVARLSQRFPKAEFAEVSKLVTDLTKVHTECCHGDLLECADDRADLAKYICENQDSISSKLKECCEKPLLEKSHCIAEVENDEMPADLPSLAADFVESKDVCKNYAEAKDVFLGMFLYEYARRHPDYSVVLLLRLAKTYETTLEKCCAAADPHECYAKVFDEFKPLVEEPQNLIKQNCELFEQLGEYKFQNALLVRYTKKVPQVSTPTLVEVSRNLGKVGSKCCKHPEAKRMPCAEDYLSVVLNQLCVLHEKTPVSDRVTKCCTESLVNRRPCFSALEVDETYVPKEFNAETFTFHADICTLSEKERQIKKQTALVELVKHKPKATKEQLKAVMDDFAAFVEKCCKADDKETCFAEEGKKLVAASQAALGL
Text: Fluorescence polarisation assay was used to examine the affinity binding of the imaging agent towards the cMet target as well as the binding properties related to plasma proteins. The principle of the fluorescence polarisation method can briefly be described as follows:
as §1

Series [2] relates to HT-29 human colon carcinoma tumour (c-Met expressing). The series can be described thus: In vivo optical imaging of HT-29 tumour-bearing nude mice. Set-up: species or system mouse. Particulars: HT-29 s.c. tumours in female BALB c/A nude mice, i.v., 635 nm excitation. From the text:
Female BALB c/A nude (Born) mice were used in the study. The use of the animals was approved by the local ethics committee. BALB c/A nude is an inbred immunocompromised mouse strain with a high take rate for human tumours as compared to other nude mice strains. The mice were 8 weeks old upon arrival and with a body weight of approx. 20 grams at the start of the study. The animals were housed in individually ventilated cages (IVC, Scanbur BK) with HEPA filtered air. The animals had ad libitum access to “Rat and Mouse nr. 3 Breeding” diet (Scanbur BK) and tap water acidified by addition of HCl to a molar concentration of 1 mM (pH 3.0).
The colon cancer cell HT-29 is derived from human colon carcinomas and is reported to express c-Met according to Zeng et al [Clin. Exp. Metastasis, 21, 409-417. (2004)]. The cell line was proven to be tumorigenic when inoculated subcutaneously into nude mice [Flatmark et al, Eur. J. Cancer 40, 1593-1598 (2004)].
HT-29 cells were grown in McCoy's 5a medium (Sigma #M8403) supplemented with 10% fetal bovine serum and penicillin/streptomycin. Stocks were made at passage number four (P4) and frozen down for storage in liquid nitrogen at 10^7 cells/vial in the respective culture media containing 5% DMSO. On the day of the transplantation, the cells were thawed quickly in 37° C. water bath (approx. 2 min), washed and resuspended in PBS/2% serum (centrifugation at 1200 rpm for 10 min). Thorough mixing of cells in the vials was ensured every time the cells were aspirated into the dosing syringe. A volume of 0.1 ml of cell suspension was injected s.c. at the shoulder and at the back using a fine bore needle (25 G). The animals were then returned to their cages and the tumours were allowed to grow for 13-17 days. The animals were allowed an acclimatisation period of at least 5 days before the inoculation procedure.
All test substances were reconstituted with PBS from freeze-dried powder. A small stack of white printer paper was imaged to obtain a flat field image which was used to correct for illumination inhomogeneities.
For immobilisation during the optical imaging procedure, the animals were anaesthetized in a coaxial open mask to light surgical level anaesthesia with Isoflurane (typically 1.3-2%), using oxygen as the carrier gas. A small piece of skin (3-5 mm) was removed over parts of the tumour and adjacent muscle using a surgical forceps and fine scissors while the animal was anaesthetized. This was done to measure the signal from tumour and muscle without interference from the overlying skin tissue. The wound was covered by applying a liquid, non-fluorescent bandage spray (3M, MN, USA).
The respiration and body temperature of the animal was monitored with a BioVet system (m2m Imaging Corp, NJ, USA) using a pneumatic sensor underneath the animal and a rectal temperature probe. The BioVet system also supplied external heating using a heating mat set to 40° C. to sustain normal body temperature for the duration of the imaging procedure (2 hours). A Venflon catheter was placed in the tail vein for contrast agent administration. Each animal was given one contrast agent injection. The injected volume was 0.1 ml of test compound followed immediately by a 0.2 ml saline flush. Fluorescence images were acquired just prior to injection and then every 30 seconds for 2 hours.
Imaging was performed through a clinical laparoscope adapted to use a light source to excite the reporter and a filtering system to extract the fluorescence component. […]

The target in series [3] is T2, human serum albumin.

The structures appear in SMILES notation. Where a SMILES comes first, the peptide text is derived from it. Bridges are numbered along the chain shown (N, C = ends). The star is where a group is joined. X2 = CCN1c2cc3c(cc2C(C)=CC1(C)C)/C(=C/C=C/C1=[N+](CCCCCC(=O)*)c2ccc(S(=O)(=O)[O-])cc2C1(C)C)C=C(C(C)(C)C)O3; X3 = CCN(CCCS(=O)(=O)O)c1ccc2c(c1)OC(C(C)(C)C)=C/C2=C\C=C\C1=[N+](CCCCCC(=O)*)c2ccc(S(=O)(=O)[O-])cc2C1(C)C

T1 sequence (P08581 with tags, fused parts or gaps limits assumed): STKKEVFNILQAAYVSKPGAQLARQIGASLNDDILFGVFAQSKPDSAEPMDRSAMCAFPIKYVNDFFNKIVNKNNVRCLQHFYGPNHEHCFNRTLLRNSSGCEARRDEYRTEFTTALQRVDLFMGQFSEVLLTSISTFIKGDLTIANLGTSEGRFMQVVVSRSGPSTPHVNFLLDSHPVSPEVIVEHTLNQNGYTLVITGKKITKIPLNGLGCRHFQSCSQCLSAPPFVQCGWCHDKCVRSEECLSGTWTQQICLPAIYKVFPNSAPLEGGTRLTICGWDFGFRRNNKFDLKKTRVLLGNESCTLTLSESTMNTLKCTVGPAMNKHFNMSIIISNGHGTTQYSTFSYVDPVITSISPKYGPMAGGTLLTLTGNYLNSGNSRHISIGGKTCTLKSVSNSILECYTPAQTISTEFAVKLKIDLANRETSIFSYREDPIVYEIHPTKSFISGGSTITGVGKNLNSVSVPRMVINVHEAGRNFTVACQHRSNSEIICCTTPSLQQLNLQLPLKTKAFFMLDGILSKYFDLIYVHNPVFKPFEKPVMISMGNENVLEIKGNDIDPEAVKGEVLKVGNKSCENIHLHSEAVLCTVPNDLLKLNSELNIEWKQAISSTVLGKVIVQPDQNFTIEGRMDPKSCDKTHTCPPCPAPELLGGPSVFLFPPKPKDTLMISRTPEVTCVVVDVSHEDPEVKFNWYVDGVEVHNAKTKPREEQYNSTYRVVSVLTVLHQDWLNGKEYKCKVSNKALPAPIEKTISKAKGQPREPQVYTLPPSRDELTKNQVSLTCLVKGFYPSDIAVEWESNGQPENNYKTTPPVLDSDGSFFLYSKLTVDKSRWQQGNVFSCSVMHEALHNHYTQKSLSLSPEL
T1 sequence (P08581 25-307 limits assumed, change not shown): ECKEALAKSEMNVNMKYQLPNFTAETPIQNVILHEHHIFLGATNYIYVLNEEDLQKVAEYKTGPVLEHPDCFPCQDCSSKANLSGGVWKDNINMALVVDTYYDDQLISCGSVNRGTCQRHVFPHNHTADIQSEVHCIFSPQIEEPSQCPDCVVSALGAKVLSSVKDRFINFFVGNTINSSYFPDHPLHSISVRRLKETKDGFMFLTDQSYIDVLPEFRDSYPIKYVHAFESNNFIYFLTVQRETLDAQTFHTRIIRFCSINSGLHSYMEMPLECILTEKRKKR

Broadly, the share remaining is the share of the starting amount still present when the sample was taken. One may read the Kd as the concentration at which binding is half-saturated. High values mean lower affinity, low ones higher affinity. The term fraction unbound denotes free concentration divided by total concentration. Consider `CCN(CCCS(=O)(=O)O)c1ccc2c(c1)OC(C(C)(C)C)=C/C2=C\C=C\C1=[N+](CCCCCC(=O)NCCCC[C@H](NC(=O)CNC(=O)CNC(=O)CNC(=O)[C@@H](NC(=O)CNC(=O)[C@H](CCC(=O)O)NC(=O)[C@@H](NC(=O)[C@H](CCC(=O)O)NC(=O)[C@H](Cc2ccc(O)cc2)NC(=O)[C@@H]2CSSC[C@H](NC(=O)[C@H](CO)NC(=O)CNC(=O)[C@H](C)NC(C)=O)C(=O)N[C@@H](Cc3ccc(O)cc3)C(=O)N[C@H]3CSSC[C@H](NC(=O)[C@H](CCC(=O)O)NC(=O)[C@H](Cc4ccccc4)NC(=O)[C@H](CCCNC(=N)N)NC(=O)[C@@H]4CCCN4C(=O)[C@@H]4CCCN4C(=O)CNC(=O)[C@H](CO)NC3=O)C(=O)N[C@@H](Cc3c[nH]c4ccccc34)C(=O)N2)[C@@H](C)O)[C@@H](C)O)C(N)=O)c2ccc(S(=O)(=O)[O-])cc2C1(C)C` [Compound 3] (Ac-AGSCYCSGPPRFECWCYETEGTGGGK(X3)-NH2; disulfide 4-16, 6-14), for which, in the series “in vitro”, the share remaining at 2 h was above 95%. On human c-Met/Fc chimera, the Kd is 0.5 nM. This compound showed a fraction unbound with human serum albumin [1] of 0.73. In series [2], the “Average tumour:muscle ratio (2 hours p.i.)” value came to 1.67. Moreover, in the series with human serum albumin [3], the “Binding human serum albumin (Biacore)” value is recorded as “Low”.
Taken in the same sequence, the figures for `CCN1c2cc3c(cc2C(C)=CC1(C)C)/C(=C/C=C/C1=[N+](CCCCCC(=O)NCCCC[C@H](NC(=O)CNC(=O)CNC(=O)CNC(=O)[C@@H](NC(=O)CNC(=O)[C@H](CCC(=O)O)NC(=O)[C@@H](NC(=O)[C@H](CCC(=O)O)NC(=O)[C@H](Cc2ccc(O)cc2)NC(=O)[C@@H]2CSSC[C@H](NC(=O)[C@H](CO)NC(=O)CNC(=O)[C@H](C)NC(C)=O)C(=O)N[C@@H](Cc4ccc(O)cc4)C(=O)N[C@H]4CSSC[C@H](NC(=O)[C@H](CCC(=O)O)NC(=O)[C@H](Cc5ccccc5)NC(=O)[C@H](CCCNC(=N)N)NC(=O)[C@@H]5CCCN5C(=O)[C@@H]5CCCN5C(=O)CNC(=O)[C@H](CO)NC4=O)C(=O)N[C@@H](Cc4c[nH]c5ccccc45)C(=O)N2)[C@@H](C)O)[C@@H](C)O)C(N)=O)c2ccc(S(=O)(=O)[O-])cc2C1(C)C)C=C(C(C)(C)C)O3` [Compound 4] (Ac-AGSCYCSGPPRFECWCYETEGTGGGK(X2)-NH2; disulfide 4-16, 6-14) were above 95%, 3.2 nM, 0.45, 1.52 and “Very high”.
